Legend:
[1] = molecular target: T1, human pIgR extracellular domain (ECD) (human, UniProt P01833 19-638); experiment: SPR, VHH captured by anti-Fc, ECD analyte
T1 construct: Bought from R&D Systems (Cat 2717-PG-050); also called hpIgR ECD
Experimental: (§1) In an assay, two flow cells of the SPR were used, in which the flow cell 1 ran the buffer reference, and the flow cell 2 ran the analyte. […] The HBSP (GE) buffer was followed at a flow rate of 30 μL/min. Then, the VHHs were captured on the anti-human Fc protein surface at 0.5 ug/ml (˜200-300 RU) on the flow cell 2. The running buffer was changed to HBSP with 100 ug/ml BSA after the capture. Next, the pIgR extracellular domains were used as analyte and loaded in a series of concentrations, starting at 30 nM with further 3-fold dilution series.
(§2) The extracellular domains were prepared as follows: cynomolgus monkey and rat extracellular domains were produced and characterized in house; mouse and human pIgR extracellular domains were purchased from R&D Systems (Cat #2800-PG-050 & 2717-PG-050 respectively). The pIgR extracellular domains were injected from low to high concentration using a single-cycle kinetics method. The off-rate was monitored at 30 minutes after the last or highest concentration injection. The reference run was completed under the same conditions except that the pIgR injection was replaced by buffer injection.
(§3) The raw data were processed by subtracting two sets of reference data from the response data: (1) reference flow cell 1 subtracted from sample flow cell 2; and (2) buffer blank run subtracted from experimental run. The processed data at all concentrations for each VHH were globally fit to a 1:1 simple Langmuir binding model to extract estimates of the kinetic constants (kₒₙ, koff) and affinity constants (KD).

[2] = molecular target: T2, cynomolgus monkey pIgR extracellular domain (cynomolgus monkey, UniProt A0A2K5WMU9 19-638); experiment: SPR, VHH captured by anti-Fc, ECD analyte
T2 construct: extracellular domain
T2 sequence (A0A2K5WMU9 entry or part of it): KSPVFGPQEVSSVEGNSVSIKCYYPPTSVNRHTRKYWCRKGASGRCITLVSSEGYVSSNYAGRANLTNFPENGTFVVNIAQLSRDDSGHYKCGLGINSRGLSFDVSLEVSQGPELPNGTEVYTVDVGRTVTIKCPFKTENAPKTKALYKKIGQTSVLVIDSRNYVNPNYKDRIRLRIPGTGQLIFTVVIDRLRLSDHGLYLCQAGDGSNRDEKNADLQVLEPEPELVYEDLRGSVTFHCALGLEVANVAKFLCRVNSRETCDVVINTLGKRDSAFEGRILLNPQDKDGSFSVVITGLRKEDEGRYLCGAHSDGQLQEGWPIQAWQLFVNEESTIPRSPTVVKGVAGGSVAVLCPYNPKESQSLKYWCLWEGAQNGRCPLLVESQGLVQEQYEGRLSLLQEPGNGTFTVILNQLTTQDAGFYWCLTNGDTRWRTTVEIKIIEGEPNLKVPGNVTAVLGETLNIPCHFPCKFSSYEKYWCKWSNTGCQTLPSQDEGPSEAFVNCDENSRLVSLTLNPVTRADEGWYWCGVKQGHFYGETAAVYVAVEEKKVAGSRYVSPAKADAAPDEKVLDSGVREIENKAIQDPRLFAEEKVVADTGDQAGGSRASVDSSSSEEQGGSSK
Experimental: as §1, §2, §3

T1 sequence (P01833 other isoform, or with tags, fused parts or gaps): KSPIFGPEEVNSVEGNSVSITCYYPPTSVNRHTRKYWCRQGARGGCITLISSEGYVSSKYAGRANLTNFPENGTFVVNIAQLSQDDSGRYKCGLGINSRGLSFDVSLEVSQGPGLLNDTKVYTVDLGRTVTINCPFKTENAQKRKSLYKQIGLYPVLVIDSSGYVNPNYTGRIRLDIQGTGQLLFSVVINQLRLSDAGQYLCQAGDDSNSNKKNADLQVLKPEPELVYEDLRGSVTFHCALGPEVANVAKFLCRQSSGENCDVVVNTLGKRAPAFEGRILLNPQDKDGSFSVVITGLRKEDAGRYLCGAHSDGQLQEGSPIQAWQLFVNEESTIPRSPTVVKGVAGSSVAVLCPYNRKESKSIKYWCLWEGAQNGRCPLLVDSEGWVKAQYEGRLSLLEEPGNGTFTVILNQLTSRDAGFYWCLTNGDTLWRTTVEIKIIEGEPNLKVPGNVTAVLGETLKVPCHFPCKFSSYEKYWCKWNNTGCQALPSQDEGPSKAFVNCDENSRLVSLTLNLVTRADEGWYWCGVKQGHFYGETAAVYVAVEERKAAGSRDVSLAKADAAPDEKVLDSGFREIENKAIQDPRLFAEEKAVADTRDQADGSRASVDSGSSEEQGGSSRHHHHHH

| Binder | Kd [1] [nM] | Kd [2] [nM] |
| --- | --- | --- |
| 01C09R3LS VHH Mono-Fc (Fc fusion) EVQLVESGGGLVQAGGSLRLSCAASGRTINTYVMGWFRQAPGKEREFVARIDWSGSSTDYADSVKGRFTISRDNAKNTVYLQMNSLKPEDTAVYYCAGSAYYSGYVTHRDFGSWGQGTQVTVSSSPAPELLGGPSVFLFPPKPKDTLMISRTPEVTCVVVDVSHEDPEVKFNWYVDGVEVHNAKTKPREEQYNSTYRVVSVLTVLHQDWLNGKEYKCKVSNKALPAPIEKTISKAKGQPREPQVYTKPPSREEMTKNQVSLSCLVKGFYPSDIAVEWESNGQPENNYKTTVPVLDSDGSFRLASYLTVDKSRWQQGNVFSCSVMHEALHNHYTQKSLSLSPGK | 6.92 | 93.7 |
| 01G10R3LS VHH Mono-Fc (Fc fusion) EVQLVESGGGLVQAGGSLRLSCAASGRTINTYVTGWFRQAPGKEREFVARIDWSGSSTDYADSVKGRFTISRDNAKNTVYLQMNSLKPEDTAVYYCAGSAYYSGYVTHRDFGSWGQGTQVTVSSSPAPELLGGPSVFLFPPKPKDTLMISRTPEVTCVVVDVSHEDPEVKFNWYVDGVEVHNAKTKPREEQYNSTYRVVSVLTVLHQDWLNGKEYKCKVSNKALPAPIEKTISKAKGQPREPQVYTKPPSREEMTKNQVSLSCLVKGFYPSDIAVEWESNGQPENNYKTTVPVLDSDGSFRLASYLTVDKSRWQQGNVFSCSVMHEALHNHYTQKSLSLSPGK | 18.5 | 287 |
| 03G05R3 VHH Mono-Fc (Fc fusion) EVQLVESGGGLVQAGDSLRLSCAASGRALSFNTYAMAWFRQAPGKEREFVASITYNGGSTYYADSVKGRFTVTRDNGKNTVTLRMNSLKPDDTAVYYCASAQYWRSGTSFPANYWGQGTQVTVSSSPAPELLGGPSVFLFPPKPKDTLMISRTPEVTCVVVDVSHEDPEVKFNWYVDGVEVHNAKTKPREEQYNSTYRVVSVLTVLHQDWLNGKEYKCKVSNKALPAPIEKTISKAKGQPREPQVYTKPPSREEMTKNQVSLSCLVKGFYPSDIAVEWESNGQPENNYKTTVPVLDSDGSFRLASYLTVDKSRWQQGNVFSCSVMHEALHNHYTQKSLSLSPGK | 3.7 | 30.1 |
| 01F04R3 VHH Mono-Fc (Fc fusion) QVQLVESGGGLVQAGDSLRLSCAASGRALSFNTYAMAWFRQAPGKEREFVASITYNGGSTYYADSVRGRFTVTRDSGKNTVTLRMNSLKPDDTAVYYCASAQYWRSGTSFPANYWGQGTLVTVSSSPAPELLGGPSVFLFPPKPKDTLMISRTPEVTCVVVDVSHEDPEVKFNWYVDGVEVHNAKTKPREEQYNSTYRVVSVLTVLHQDWLNGKEYKCKVSNKALPAPIEKTISKAKGQPREPQVYTKPPSREEMTKNQVSLSCLVKGFYPSDIAVEWESNGQPENNYKTTVPVLDSDGSFRLASYLTVDKSRWQQGNVFSCSVMHEALHNHYTQKSLSLSPGK | 5.92 | 30.9 |
| 01B05R2 VHH Mono-Fc (Fc fusion) EVQLVESGGGLVQAGGSLRLSCAASGRSLSFDTYAMGWFRQAPGKEREFVASIDWNGGSTYYADSVKGRFTISRDNARNTVNLRMNSLKPDDTAVYYCAAARYYTSGTYFPANYWGQGTQVTVSSSPAPELLGGPSVFLFPPKPKDTLMISRTPEVTCVVVDVSHEDPEVKFNWYVDGVEVHNAKTKPREEQYNSTYRVVSVLTVLHQDWLNGKEYKCKVSNKALPAPIEKTISKAKGQPREPQVYTKPPSREEMTKNQVSLSCLVKGFYPSDIAVEWESNGQPENNYKTTVPVLDSDGSFRLASYLTVDKSRWQQGNVFSCSVMHEALHNHYTQKSLSLSPGK | 3.55 | 177 |
| 03C10R3 VHH Mono-Fc (Fc fusion) QVQLVESGGGLVQRGGSLRLSCAASGRSLGFDTYAMGWFRQAPGKEREFVASIDWNGGNTYYADSVKGRFTISRDNAKNTVNLRMNSLKPDDTAAYYCAAARYYTSGTYFPANYWGRGTLVTVSSSPAPELLGGPSVFLFPPKPKDTLMISRTPEVTCVVVDVSHEDPEVKFNWYVDGVEVHNAKTKPREEQYNSTYRVVSVLTVLHQDWLNGKEYKCKVSNKALPAPIEKTISKAKGQPREPQVYTKPPSREEMTKNQVSLSCLVKGFYPSDIAVEWESNGQPENNYKTTVPVLDSDGSFRLASYLTVDKSRWQQGNVFSCSVMHEALHNHYTQKSLSLSPGK | 1.67 | 17.5 |
| 01H05R3 VHH Mono-Fc (Fc fusion) QVQLVESGGGLVQAGGSLRLSCAASGRSLGFDTYGMAWFRQAPGKEREFVASIDWNGGSTYYADSMKGRFTISRDNAKNTVNLRMNSLKPDDTAVYYCAAARYYTSSTYFPANYWGQGTQVTVSSSPAPELLGGPSVFLFPPKPKDTLMISRTPEVTCVVVDVSHEDPEVKFNWYVDGVEVHNAKTKPREEQYNSTYRVVSVLTVLHQDWLNGKEYKCKVSNKALPAPIEKTISKAKGQPREPQVYTKPPSREEMTKNQVSLSCLVKGFYPSDIAVEWESNGQPENNYKTTVPVLDSDGSFRLASYLTVDKSRWQQGNVFSCSVMHEALHNHYTQKSLSLSPGK | 7.54 | 406 |
| 03H05R3 VHH Mono-Fc (Fc fusion) QVQLVESGGGLVQAGGSLSLSCAASGRSLSFDTYAMSWFRQAPGKEREFVASIDWNGGSTSYADSMKGRFTISRDNAKNTVNLRIRSLKPDDTAVYFCASARYYIGGTYFPANYWGQGTQVTVSSSPAPELLGGPSVFLFPPKPKDTLMISRTPEVTCVVVDVSHEDPEVKFNWYVDGVEVHNAKTKPREEQYNSTYRVVSVLTVLHQDWLNGKEYKCKVSNKALPAPIEKTISKAKGQPREPQVYTKPPSREEMTKNQVSLSCLVKGFYPSDIAVEWESNGQPENNYKTTVPVLDSDGSFRLASYLTVDKSRWQQGNVFSCSVMHEALHNHYTQKSLSLSPGK | 2.93 | 108 |
| 01B04R2 VHH Mono-Fc (Fc fusion) EVQLVESGGGLVQAGGSLRLSCAASGRTFTSYTMGWFRQAPGKEREFVAAIKWNGGSTYYADSVKGRFTISRDNAKNTVYLQMNSLKPEDTAVYYCAADGDPYFSPTDGIVWHAPHQSEYDYWGQGTLVTVSSSPAPELLGGPSVFLFPPKPKDTLMISRTPEVTCVVVDVSHEDPEVKFNWYVDGVEVHNAKTKPREEQYNSTYRVVSVLTVLHQDWLNGKEYKCKVSNKALPAPIEKTISKAKGQPREPQVYTKPPSREEMTKNQVSLSCLVKGFYPSDIAVEWESNGQPENNYKTTVPVLDSDGSFRLASYLTVDKSRWQQGNVFSCSVMHEALHNHYTQKSLSLSPGK | 16.8 |  |

Further lines, results first:

| Kd [1] [nM] | Kd [2] [nM] | Binder |
| --- | --- | --- |
| 1.16 |  | 01D04R3LS VHH Mono-Fc (Fc fusion) EVQLVESGGGLVQAGGSLRLSCAASGRTFRSYAMGWFRQAPGKEREFVADISWRGGRLYYADSVKGRFTISRDNAKNTVYLQMNSLKPEDTAVYYCAATGDQPAFTTAQGMGAMLEYDYWGQGTLVTVSSSPAPELLGGPSVFLFPPKPKDTLMISRTPEVTCVVVDVSHEDPEVKFNWYVDGVEVHNAKTKPREEQYNSTYRVVSVLTVLHQDWLNGKEYKCKVSNKALPAPIEKTISKAKGQPREPQVYTKPPSREEMTKNQVSLSCLVKGFYPSDIAVEWESNGQPENNYKTTVPVLDSDGSFRLASYLTVDKSRWQQGNVFSCSVMHEALHNHYTQKSLSLSPGK |
| 8.39 | 135 | 01E09R3LS VHH Mono-Fc (Fc fusion) EVQLVESGGGLVQAGGSLRLSCAASGRTINTYVMGWFRQAPGKEREFVARIDWSGSSTDYADSVKGRFTTSRDNAKNTVYLQMNGLKPEDTAVYYCAGSAYYSGYVTHRDFGSWGQGTLVTVSSSPAPELLGGPSVFLFPPKPKDTLMISRTPEVTCVVVDVSHEDPEVKFNWYVDGVEVHNAKTKPREEQYNSTYRVVSVLTVLHQDWLNGKEYKCKVSNKALPAPIEKTISKAKGQPREPQVYTKPPSREEMTKNQVSLSCLVKGFYPSDIAVEWESNGQPENNYKTTVPVLDSDGSFRLASYLTVDKSRWQQGNVFSCSVMHEALHNHYTQKSLSLSPGK |
| 1.44 | 14.4 | 01D06R2 VHH Mono-Fc (Fc fusion) QVQLVESGGGLVQAGDSLRLSCAASGRTLSFDTYAMAWFRQAPGKEREFVASIDWNGVNTYYADSVKGRFTVTRDNTKNTVTLRMNSLKTDDTAVYYCAAAQYYRSGTSFPANSWGQGTQVTVSSSPAPELLGGPSVFLFPPKPKDTLMISRTPEVTCVVVDVSHEDPEVKFNWYVDGVEVHNAKTKPREEQYNSTYRVVSVLTVLHQDWLNGKEYKCKVSNKALPAPIEKTISKAKGQPREPQVYTKPPSREEMTKNQVSLSCLVKGFYPSDIAVEWESNGQPENNYKTTVPVLDSDGSFRLASYLTVDKSRWQQGNVFSCSVMHEALHNHYTQKSLSLSPGK |
| 3.09 | 46.3 | 01C04R3 VHH Mono-Fc (Fc fusion) QVQLVESGGGLVQAGDSLRLSCAASGRALSFNTYAMAWFRQAPGKEREFVASITYNGGSTYYADSVKGRFTVTRDNGKDTVTLRMNSLKPDDTAVYYCASAQYWRSGTSFPANYWGQGTLVTVSSSPAPELLGGPSVFLFPPKPKDTLMISRTPEVTCVVVDVSHEDPEVKFNWYVDGVEVHNAKTKPREEQYNSTYRVVSVLTVLHQDWLNGKEYKCKVSNKALPAPIEKTISKAKGQPREPQVYTKPPSREEMTKNQVSLSCLVKGFYPSDIAVEWESNGQPENNYKTTVPVLDSDGSFRLASYLTVDKSRWQQGNVFSCSVMHEALHNHYTQKSLSLSPGK |
